From US20230382979A1 (ADAPTIVE BIOTECHNOLOGIES, published 2023)

What was measured:
[1] = target: T1, Receptor-binding domain (RBD) of the SARS-CoV-2 spike protein, WA01/2020 strain (SARS-CoV-2, WA01/2020 strain, UniProt P0DTC2 319-541); experiment: ELISA, antibody blocks RBD binding to human ACE2
[2] = target: SARS-CoV-2 spike protein on live virus, strain USA-WA1/2020 (SARS-CoV-2, WA01/2020 strain, UniProt P0DTC2 14-1273); experiment: cell-based or functional assay
[3] = target: SARS-CoV-2 spike protein, B1.1.7 (alpha variant), borne on lentiviral pseudovirus (SARS-CoV-2, B1.1.7); experiment: cell-based or functional assay
[4] = target: T1, Receptor-binding domain (RBD) of the …; experiment: SPR (Biacore 8K), antigen immobilized, antibody injected
[5] = target: T1, Receptor-binding domain (RBD) of the …; experiment: dose-response ELISA on coated antigen

B1: antibody 2050 (antibody, V domains shown)
VH: QVQLVQSGAEVKKPGASVKVPCKVSGYTFTDHFIHWVRQAPGQGLEWMGWISPNSGGRNYTQKFQGRVTLTRDTAITTVHMDLSSLTPDDTAVYYCARDVRWAQLQGGFDLWGQGTMVTVSS
VL: QSALTQPASVSGSPGQSITISCTGTSSDVGSYNLVSWYQQHPGKAPKLMIYEVSKRPSGVSNRFSGSKSGNTASLTISGLQADDEADYYCCSYAGDNNFLFGGGTSLTVL
For B1, the IC50 [1] was 0.727 nM, the “Live Neut, WA1/2020 IC50 (pM)” value [2] was 36 pM and the “Pseudo Neut, B1.1.7 IC50 (pM)” value [3] was 200 pM. It also gave a Kd [4] of 0.115 nM and an EC50 [5] of 0.025 nM.

B2: antibody 2080 (antibody, V domains shown)
VH: QVQLQQWGAGLLKPSETLSLTCAVYGGSFSGYYWSWIRQPPGKGLEWIGRINDIGSTDYNPSLKSRVTISVDTSKNQFSLKLTSVTAADTAVYYCAREPFDSEGTFDYWGQGTLVIVSS
VL: DIQMTQPPSTLSASVGDRVTITCRASQSISRWLAWYRQKPGKAPKLLIYDASSLQSGVPSRFSGSGSGTEFTLTISSLQPDDLATYYCQQYNTYPYTFGQGTKLEIK
In the case of B2, the “Live Neut, WA1/2020 IC50 (pM)” value [2] is reported as 169 pM.

B3: antibody 941 (antibody, V domains shown)
VH: QVQLVQSGAEVKKPGSSVKVSCKASGGTFSNSAINWVRQAPGQGLEWMGGIIPLFGAADYAQKFQARVTITADKSTTTSYMELSSLRSEDTAVYYCARDTLEHDDVWGNFRLSLPLSFWGQGTLVTVSS
VL: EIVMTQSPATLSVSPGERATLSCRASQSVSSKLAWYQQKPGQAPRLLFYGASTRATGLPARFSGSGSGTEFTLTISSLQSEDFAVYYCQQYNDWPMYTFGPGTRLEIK
In the case of B3, the IC50 [1] is reported as 0.96 nM, the “Live Neut, WA1/2020 IC50 (pM)” value [2] is reported as 24 pM and the “Pseudo Neut, B1.1.7 IC50 (pM)” value [3] is reported as 533 pM. For the same binder, the Kd [4] was 0.062 nM and the EC50 [5] was 0.024 nM.

B4: antibody 1231 (antibody, V domains shown)
VH: QVQLVQSGSELKKPGASVKVSCTGYGYTFTSYAMNWVRQAPGQGLEWMGWINTNTGHPAYAQGFTGRFVFSLDSSVSTAYLQISSLKAEDTAVYYCATTIRAGGYFDFWGQGTLVTVSS
VL: DIQLTQSPSFLSASVGDRVTITCRASQGISSYLAWFQQKPGKAPKLLIYVVSILQSGVPSRFSGSGSGTEFTLTISSLQPEDFATYYCQQLNSYPYTFGQGTKLEIK
B4 was tested, and the IC50 [1] was 3.69 nM, the “Live Neut, WA1/2020 IC50 (pM)” value [2] was 9510 pM and the Kd [4] was 2.54 nM. For the same binder, the EC50 [5] was 0.018 nM.

B5: antibody 2606 (antibody, V domains shown)
VH: EVQLVESGGGLVKPGGSLRLSCAASGFTFSSYSMNWVRQAPGKGLEWVSSITSSSGYMYYADSVKGRFTISRDNAKNSLYLQLNSLRAEDTAVYYCAKDSAFDLWEVRSYYYVMDVWGQGTTVTVSS
VL: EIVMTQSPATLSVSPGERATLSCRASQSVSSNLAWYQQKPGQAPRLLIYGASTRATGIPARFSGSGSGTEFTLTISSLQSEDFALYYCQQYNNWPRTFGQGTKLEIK
In the case of B5, the “Live Neut, WA1/2020 IC50 (pM)” value [2] is reported as 474 pM.

B6: antibody 1439 (antibody, V domains shown)
VH: QVQLQESGPGLVKPSETLSLTCTVSGDSISTYYWSWIRQPPGKGLEWIGYIHYSGSTNYNPSLKSRVAVSVDTSKNQFSLKLSSVTAADTAVYYCARGGGVFGVVINFDYWGQGILVTVSS
VL: NFMLTQPYSVSESPGKTVTISCTRSSGSIASNYVQWYQQRPGSAPTTVIYEDNQRPSGVPDRFSGSIDSSSNSASLTISGLKTEDEADYYCQSRDSSNPVVFGGGTKLTVL
Binder B6 has an IC50 [1] of 0.117 nM, a Kd [4] of 0.0176 nM and an EC50 [5] of 0.0099 nM.

B7: antibody 2598 (antibody, V domains shown)
VH: QVQLQESGPGLVKPSGTLSLTCVVSGGSISSSNWWSWVRQPPGKGLEWIGETFHSGSFNYNPSLKSRVTISVDKSKNQFSLKLSSVTAADTAIYYCATTRVGYEGHFYYYGMDVWGQGTTVTVSS
VL: DIQMTQSPSSVSASVGDRVTITCRASQGISSWLAWYQQKPGKAPKLLIYAASSLQSGVPSRFSGSGSGTDFTLTISSLQPEDFATYYCQQANRFPWTFGQGTKVEIK
For B7, the “Live Neut, WA1/2020 IC50 (pM)” value [2] was 586 pM.

B8: antibody 1213 (antibody, V domains shown)
VH: QMQLVQSGAEVKKTGSSVKVSCEASENTFTNRYLHWVRQAPGQALEWMGWITPFQGNTHYAQKFQDRVTITRDRSMNTVYMELSSLRSEDTAIYYCASGGQYGPGSYYFEFWGQGTLVTVSS
VL: EIVMTQSPATLSVSPGERATLSCRASQSIRNNLAWYRQKPGQAPRLLIYGASTRAAGVPARFSGSGSGTEFTLTISSLQSEDFAVYYCQQYINWPPLTFGGGTKVEIK
In the case of B8, the IC50 [1] is reported as 7.74 nM, the “Live Neut, WA1/2020 IC50 (pM)” value [2] is reported as 2590 pM and the Kd [4] is reported as 1.72 nM. The EC50 [5] was 0.051 nM.

B9: antibody 1227 (antibody, V domains shown)
VH: QMQLVQSGAEVKKTGSSVKVSCEASGYTFTNRYLHWVRQAPGQALEWMGWITPFQGNTNYAQKFQDRVTITRDMSMNTVYMELSSLRSEDTAKYYCASGGQYGAGSYYLEDWGQGTLVTVSS
VL: EIVMTQSPATLSVSPGERATLSCRASQSVRSNLAWYRQKPGQAPRLLIYGASTRATGVPARFSGSGSGTEFTLTISSLQSEDFAVYYCQQYINWPPLTFGGGTRVEIK
For B9, the IC50 [1] was 14.5 nM, the “Live Neut, WA1/2020 IC50 (pM)” value [2] was 1490 pM and the Kd [4] was 2.74 nM. The EC50 [5] was 0.107 nM.

B10: antibody 2020 (antibody, V domains shown)
VH: QVQLVQSGAEVKKPGASVKVSCKASGYTFTDYFMHWVRQAPGQGLEWMGWVNPLSGGTNFAQKFQGRVTMTSDTSITTVYMELSRLRSDDTAVYYCARDPPLYSSTYGMDVWGQGTTVTVSS
VL: QSALTQPASVSGSPGQSITISCTGTSSDVGAYNYVSWYQQHPGKAPKLMIYDVSDRPSGVSNRFSGSKSGNTASLTISGLQAEDEADYYCSSYTISSSVVFGGGTKLTVL
B10 was tested, and the IC50 [1] was 1.41 nM, the “Live Neut, WA1/2020 IC50 (pM)” value [2] was 14 pM and the “Pseudo Neut, B1.1.7 IC50 (pM)” value [3] was 13 pM. The Kd [4] was 0.0011 nM and the EC50 [5] was 0.088 nM.

B11: antibody 935 (antibody, V domains shown)
VH: EVQLVESGGGLVQPGGSLRLSCAASGFTVSSNYMSWVRQAPGKGLEWVSVIYSGGSTFYADSVKGRFTISRDNSRNTLYLQMNSLRAEDTAVYYCARDWGEFFFDFWGQGALVTVSS
VL: EIVLTQSPGTLSLSPGERATLSCRASQTISSSYLAWYQQKPGQAPRLLISGASSRATGIPDRFSGSGSGTDFTLTISRLEPEDFAVYYCQQYGSSPRTFGQGTNVEIK
B11 was tested, and the IC50 [1] was 0.83 nM, the “Live Neut, WA1/2020 IC50 (pM)” value [2] was 64 pM and the “Pseudo Neut, B1.1.7 IC50 (pM)” value [3] was 1170 pM. It also gave a Kd [4] of 0.406 nM and an EC50 [5] of 0.024 nM.

B12: antibody 1671 (antibody, V domains shown)
VH: EVQLVESGGGLVKPGGSLRLSCAASGFTFSTYNMNWVRQAPGKGLEWVSSISSNSNYIYYADSMKGRFTISRDNAKNSLYLQMNSLRAEDTAVYYCARDMDPLPYFDWLLYAFDVWGQGTMVTVSS
VL: EIVLTQSPGTLSLSPGERATLSCRASQSVSGSYLAWYQQKPGQAPRLLIYGASSRATGIPDRFSGSGSGTDFTLTISRLEPEDFAVYYCQQYGSPIFTFGPGTKVDIK
B12 was tested, and the “Live Neut, WA1/2020 IC50 (pM)” value [2] was 9 pM.

B13: antibody 2075 (antibody, V domains shown)
VH: QVQLVQSGAEVKKPGSSVKVSCTASGGTFSIYAFSWVRQAPGQGLEWMGGIIPISGTAGYAQKFQGRVTITADESTSTAYMELSSLRSEDTAIYYCARKYRYCSGSRCYTYFDYWGQGTLVTVSS
VL: DIQMTQSPSSLSASVGDRVTITCRASQSISSFLNWYQQKPGKAPKLLIYAASSLQSGVPSRFSGSGSGTDFTLTISSLQPEDSATYYCQQSYSTITFGQGTRLEIK
B13 was tested, and the IC50 [1] was 0.93 nM, the “Live Neut, WA1/2020 IC50 (pM)” value [2] was 12 pM and the “Pseudo Neut, B1.1.7 IC50 (pM)” value [3] was ~7 pM. For the same binder, the Kd [4] was < 0.0007 nM and the EC50 [5] was 0.073 nM.

B14: antibody 2025 (antibody, V domains shown)
VH: QVQLVQSGAEVKKPGASVKVSCKVSGYTLIELSMHWVRQAPGKGLEWMGGFDPEDVETIYAQKFQGRVTMTEDTSTDTAYMELSSLRSEDTAVYYCATAYAVQWRGMIGYWGQGTLVTVSS
VL: QSALTQPASVSGSPGQSITISCTGTSSDVGSYNLVSWYQQHPGKAPKLMIYEVSKRPSGVSNRFSGSKSGNTASLTISGLQAEDEADYYCSSYAGSSTFSYVFGTGTKVTVL
With B14 the “Live Neut, WA1/2020 IC50 (pM)” value [2] was 118 pM, the Kd [4] was 7.13 nM and the EC50 [5] was 0.113 nM.

B15: antibody 2646 (antibody, V domains shown)
VH: QVQLVQSGAEVKKPGASVKVSCKVSGYTLTELSIHWVRQAPGKGLEWMGGFDPEDAETIYAQKFQGRVTMTEDTSTDTAYMELSSLRSEDTAVYYCATATAVAGTVFNYQYHYGLDFWGQGTTVTVSS
VL: not shown
With B15 the “Live Neut, WA1/2020 IC50 (pM)” value [2] was 19 pM.

B16: antibody 2432 (antibody, V domains shown)
VH: QVQLVQSGAEVKKPGSSVKVSCKASGDTFSSYAISWVRQAPGQGLEWLGGIIPIFGSADYAQKFQGRVTITADEFTSTAYMELSSLRSEDTAVYFCAREKYGDYGEGPLYNFDYWGQGTLVTVSS
VL: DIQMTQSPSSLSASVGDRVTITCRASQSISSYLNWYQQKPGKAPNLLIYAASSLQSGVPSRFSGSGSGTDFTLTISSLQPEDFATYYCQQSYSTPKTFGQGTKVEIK
For B16, the “Live Neut, WA1/2020 IC50 (pM)” value [2] was 26 pM.

B17: antibody 1679 (antibody, V domains shown)
VH: QITLKESGPTLVKPTQTLTLTCTFSGFSLSTVGVGVAWIRQPPGKALEWLALIYWDDDKRYSPSLKSRLTITKDTSKNHVVLTMTNMDPVDTATYYCAHHIIAALVDVWGKGTTVTVSS
VL: QSALTQPASVSGSPGQSITISCTGTSSDVGGNNYVSWYQHHPGEAPKLMIYEVSNRPSGVSNRFSGSKSGNTASLTISGLQAEDEADYYCSSYTTSSTLVVFGGGSKLTVL
B17 was tested, and the IC50 [1] was 0.07 nM, the “Live Neut, WA1/2020 IC50 (pM)” value [2] was 19 pM and the Kd [4] was 1.01 nM. The EC50 [5] was 0.003 nM.

B18: antibody 767 (antibody, V domains shown)
VH: QVQVVQSGAEVKKPGASVKVSCTASGHTFTGYAIHWVRQAPGQRLEWMGLINAGGIYRTYSQRFQGRVTITRDTSASTAYMELTGLTSEDTAVYYCARANYGSGSFSDHWGQGTLVTVSS
VL: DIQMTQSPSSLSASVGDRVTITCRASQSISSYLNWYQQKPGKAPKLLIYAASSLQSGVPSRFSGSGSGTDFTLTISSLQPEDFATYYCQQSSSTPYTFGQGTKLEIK
B18 was tested, and the IC50 [1] was 20.9 nM, the “Live Neut, WA1/2020 IC50 (pM)” value [2] was 1730 pM and the Kd [4] was 24.3 nM. For the same binder, the EC50 [5] was 3.47 nM.

B19: antibody 937 (antibody, V domains shown)
VH: EVQLVESGGGLVQPGRSLRLSCAASGFTFDDYAMHWVRQAPGKGLEWVSGISWNSGSIGYADSVKGRFTISRDNAKNSLYLQMNSLKPEDTALYYCAKSTTSCYNGSQCPTKRPKPLESWGQGTLVIVSA
VL: DIQMTQSPSTLSAFVGDRVTITCRASQSINNWLAWYQQKPGEVPKLLIYKASSLENGVPSRFSGSGFGTEFTLTISSLQPDDFAIYYCQQYYSHSHTFGQGTKLEIK
B19 was tested, and the “Live Neut, WA1/2020 IC50 (pM)” value [2] was 140 pM.
